The target in the assay is CD3 (target of the Pool 1 CD3.23 screen). Nature of the assay: Octet, crude lysate. For orientation: BLI is a label-free optical method that tracks binding on a fibre tip over time.

Kd data for 46 molecules are collected here from patent US20250188184A1.

The term Kd denotes a measure of binding affinity in units of concentration.

Positions count from the first letter of the chain named.

Chain of CD3 (target of the Pool 1 CD3.23 screen) (P07766 23-126): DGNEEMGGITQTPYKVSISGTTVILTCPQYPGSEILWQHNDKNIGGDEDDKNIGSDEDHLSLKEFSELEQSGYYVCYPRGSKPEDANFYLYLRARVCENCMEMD

B1: CD3.44 (AC3373) (bispecific antibody, V domains shown)
VH: EVQLLESGGGIVQPGGSLKLSCAASGFTFNTYAMNWVRQAPGKGLEWTARIRSKYNNYATYYADSVKDRFTISRDDSKNTVYLQMNNLKTEDTAVYYCVRHENFGNSYVSWFAHWGQGTLVTVSS
VL: ELVVTQEPSLTVSPGGTVTLTCRSSNGAVTSSNYANWVQQKPGQAPRGLIGGTNKRAPGTPARFSGSLLGGKAALTLSGVQPEDEAVYYCALWYPNLWVFGGGTKLTVL
For B1, the Kd turned out to be 5.7 nM.

B2: CD3.100 (AC3429) (bispecific antibody, V domains shown)
VH: B1 VH with T48V, N87Q
VL: B1 VL
In turn, B2 gave a Kd of 7.1 nM.

B3: CD3.83 (AC3412) (bispecific antibody, V domains shown)
VH: B1 VH with T48V, A59G
VL: B1 VL
As for B3, the Kd was determined as 8.2 nM.

B4: CD3.102 (AC3431) (bispecific antibody, V domains shown)
VH: B1 VH with T48V, N87Y
VL: B1 VL
In turn, B4 returned a Kd of 5.5 nM.

B5: CD3.95 (AC3424) (bispecific antibody, V domains shown)
VH: B1 VH with T48V, D68G
VL: B1 VL
Consider B5, for which the Kd came to 5.4 nM.

B6: CD3.94 (AC3423) (bispecific antibody, V domains shown)
VH: B1 VH with T48V, A63P
VL: B1 VL
Molecule B6 returned a Kd of 8.2 nM.

B7: CD3.93 (AC3422) (bispecific antibody, V domains shown)
VH: B1 VH with T48V, A63K
VL: B1 VL
With B7, the Kd came to 8 nM.

B8: CD3.88 (AC3417) (bispecific antibody, V domains shown)
VH: B1 VH with T48V, Y62D
VL: B1 VL
With B8, the Kd is 63.2 nM.

B9: CD3.72 (AC3401) (bispecific antibody, V domains shown)
VH: B1 VH with T48V, Y55K
VL: B1 VL
In the case of B9, the Kd is 5.1 nM.

B10: CD3.108 (AC3437) (bispecific antibody, V domains shown)
VH: B1 VH with T48V
VL: B1 VL with L68K
Molecule B10 showed a Kd of 3.2 nM.

B11: CD3.79 (AC3408) (bispecific antibody, V domains shown)
VH: B1 VH with T48V, N57E
VL: B1 VL
In turn, B11 displayed a Kd of 8.3 nM.

B12: CD3.107 (AC3436) (bispecific antibody, V domains shown)
VH: B1 VH with T48V
VL: B1 VL with L68S
For B12, the Kd turned out to be 7.3 nM.

B13: CD3.75 (AC3404) (bispecific antibody, V domains shown)
VH: B1 VH with T48V, Y55W
VL: B1 VL
Turning to B13, the Kd is 10.5 nM.

B14: CD3.89 (AC3418) (bispecific antibody, V domains shown)
VH: B1 VH with T48V, Y62E
VL: B1 VL
In turn, B14 showed a Kd of 9.7 nM.

B15: CD3.54 (AC3383) (bispecific antibody, V domains shown)
VH: B1 VH with T48V, I51A
VL: B1 VL
As to B15, the Kd was 1180 nM.

B16: CD3.106 (AC3435) (bispecific antibody, V domains shown)
VH: B1 VH with T48V
VL: B1 VL with L69D
B16: the Kd came out at 6.1 nM.

B17: CD3.82 (AC3411) (bispecific antibody, V domains shown)
VH: B1 VH with T48V, Y58W
VL: B1 VL
The molecule B17 came in with a Kd of 7.8 nM.

B18: CD3.92 (AC3421) (bispecific antibody, V domains shown)
VH: B1 VH with T48V, Y62W
VL: B1 VL
For B18, the Kd stood at 37.2 nM.

B19: CD3.99 (AC3428) (bispecific antibody, V domains shown)
VH: B1 VH with T48V, N87E
VL: B1 VL
For the molecule B19, the Kd is 5.9 nM.

B20: CD3.67 (AC3396) (bispecific antibody, V domains shown)
VH: B1 VH with T48V, S53T
VL: B1 VL
As to B20, the Kd was determined as 4.8 nM.

B21: CD3.45 (AC3374) (bispecific antibody, V domains shown)
VH: B1 VH with T48W
VL: B1 VL
In turn, B21 yielded a Kd of 34300 nM.

B22: CD3.84 (AC3413) (bispecific antibody, V domains shown)
VH: B1 VH with T48V, A59T
VL: B1 VL
In turn, B22 showed a Kd of 10.7 nM.

B23: CD3.60 (AC3389) (bispecific antibody, V domains shown)
VH: B1 VH with T48V, R52Q
VL: B1 VL
The molecule B23 returned a Kd of 434 nM.

B24: CD3.90 (AC3419) (bispecific antibody, V domains shown)
VH: B1 VH with T48V, Y62Q
VL: B1 VL
B24 had a Kd of 7.2 nM.

B25: CD3.96 (AC3425) (bispecific antibody, V domains shown)
VH: B1 VH with T48V, Y82D
VL: B1 VL
Regarding B25, the Kd amounted to 9.8 nM.

B26: CD3.101 (AC3430) (bispecific antibody, V domains shown)
VH: B1 VH with T48V, N87S
VL: B1 VL
In turn, B26 had a Kd of 4.8 nM.

B27: CD3.91 (AC3420) (bispecific antibody, V domains shown)
VH: B1 VH with T48V, Y62G
VL: B1 VL
B27 returned a Kd of 8.3 nM.

B28: CD3.56 (AC3385) (bispecific antibody, V domains shown)
VH: B1 VH with T48V, I51T
VL: B1 VL
B28: the Kd worked out at 425 nM.

B29: CD3.80 (AC3409) (bispecific antibody, V domains shown)
VH: B1 VH with T48V, Y58G
VL: B1 VL
B29 displayed a Kd of 11.3 nM.

B30: CD3.73 (AC3402) (bispecific antibody, V domains shown)
VH: B1 VH with T48V, Y55P
VL: B1 VL
Turning to B30, the Kd worked out at 33.1 nM.

B31: CD3.85 (AC3414) (bispecific antibody, V domains shown)
VH: B1 VH with T48V, Y61D
VL: B1 VL
As for B31, the Kd amounted to 939 nM.

B32: CD3.104 (AC3433) (bispecific antibody, V domains shown)
VH: B1 VH with T48V
VL: B1 VL with L69Q
With B32, the Kd is 4.6 nM.

B33: CD3.87 (AC3416) (bispecific antibody, V domains shown)
VH: B1 VH with T48V, Y61T
VL: B1 VL
B33 came in with a Kd of 17.9 nM.

B34: CD3.78 (AC3407) (bispecific antibody, V domains shown)
VH: B1 VH with T48V, N57D
VL: B1 VL
B34: the Kd worked out at 7.4 nM.

B35: CD3.105 (AC3434) (bispecific antibody, V domains shown)
VH: B1 VH with T48V
VL: B1 VL with G70E
As for B35, the Kd stood at 4.9 nM.

B36: CD3.71 (AC3400) (bispecific antibody, V domains shown)
VH: B1 VH with T48V, Y55G
VL: B1 VL
In the case of B36, the Kd was 20.1 nM.

B37: CD3.70 (AC3399) (bispecific antibody, V domains shown)
VH: B1 VH with T48V, Y55R
VL: B1 VL
For the molecule B37, the Kd came to 3.8 nM.

B38: CD3.68 (AC3397) (bispecific antibody, V domains shown)
VH: B1 VH with T48V, K54P
VL: B1 VL
As for B38, the Kd stood at 51 nM.

B39: CD3.74 (AC3403) (bispecific antibody, V domains shown)
VH: B1 VH with T48V, Y55T
VL: B1 VL
B39 gave a Kd of 11.1 nM.

B40: CD3.77 (AC3406) (bispecific antibody, V domains shown)
VH: B1 VH with T48V, N56E
VL: B1 VL
As for B40, the Kd worked out at 575 nM.

B41: CD3.86 (AC3415) (bispecific antibody, V domains shown)
VH: B1 VH with T48V, Y61E
VL: B1 VL
The molecule B41 registered a Kd of 183 nM.

B42: CD3.81 (AC3410) (bispecific antibody, V domains shown)
VH: B1 VH with T48V, Y58F
VL: B1 VL
On to B42, for which the Kd was 6.1 nM.

B43: CD3.98 (AC3427) (bispecific antibody, V domains shown)
VH: B1 VH with T48V, Y82S
VL: B1 VL
Take B43: the Kd came to 9.6 nM.

B44: CD3.48 (AC3377) (bispecific antibody, V domains shown)
VH: B1 VH with T48V, A49G
VL: B1 VL
The molecule B44 had a Kd of 4.5 nM.

B45: CD3.69 (AC3398) (bispecific antibody, V domains shown)
VH: B1 VH with T48V, Y55A
VL: B1 VL
Molecule B45 returned a Kd of 11.5 nM.

B46: CD3.97 (AC3426) (bispecific antibody, V domains shown)
VH: B1 VH with T48V, Y82G
VL: B1 VL
In turn, B46 yielded a Kd of 121 nM.
